Results as given in the RNAGym collection of RNA variant scans (doi:10.7554/elife.80360).

B1: HDV Ribozyme (parent)
chain: GGCCGGCAUGGUCCCAGCCUCCUCGCUGGCGCCGGCUGGGCAACAUUCCGAGGGGACCGUCCCCUCGGUAAUGGCGAAUGGGACCCA

Variants of: B1
Assay: self-cleavage, relative activity (ratio to wild type); higher = more cleavage; co-transcriptional

Variant | self-cleavage
GGCCGGCACGGUCCCAGCCUCCUCGCUGGCGCCGGCUGGUCAACAUUCCGAGGGGACCGUCCCCUCGGUAAUGGCGAAUGGGACCCA | 0.449
GGCCGGCACGGUCCCAGCCUCCUCGCUGGCGCCGCCUGGGCAACAUUCCGAGGGGACCGUCCCCUCGGUAAUGGCGAAUGGGACCCA | 0.519
GGCCGGCACGGUCCCAGCCUCCUCGCUGGCGCCGGCUGGGAAACAUUCCGAGGGGACCGUCCCCUCGGUAAUGGCGAAUGGGACCCA | 1.19
GGCCGGCAGGGUCCCAGCCUCCUCGCUGGCGCCGGCUGGGCGACAUUCCGAGGGGACCGUCCCCUCGGUAAUGGCGAAUGGGACCCA | 0.727
GGCCGGCACGGUCCCAGCCUCCUCGCUGGCGCCGGCUGGGCAACAUUCCGAGGGGACCGUCCACUCGGUAAUGGCGAAUGGGACCCA | 1.14
GGCCGGCACGGUCCCAGCCUCCUCGCUGGCGCCGGCUUGGCAACAUUCCGAGGGGACCGUCCCCUCGGUAAUGGCGAAUGGGACCCA | 0.486
GGCCGGCACGGUCCCAGCCUCCUCGCUGGCGCCGGCUAGGCAACAUUCCGAGGGGACCGUCCCCUCGGUAAUGGCGAAUGGGACCCA | 0.123
GGCCGGCACGGUCCCAGCCUCCUCGCUGGCGCCGGCUGGGCAACAUUCCGAGGGGACCGACCCCUCGGUAAUGGCGAAUGGGACCCA | 0.862
GGCCGGCACGGUCCCAGCCUCCUCGCUGGCGCCGGCUGGGCAACAUUCCGAGGGGACCGCCCCCUCGGUAAUGGCGAAUGGGACCCA | 1.11
GGCCGGCACGGCCCCAGCCUCCUCGCUGGCGCCGGCUGGGCAACAUUCCGAGGGGACCGUCCCCUCGGUAAUGGCGAAUGGGACCCA | 0.119
GGCCGGCACGGGCCCAGCCUCCUCGCUGGCGCCGGCUGGGCAACAUUCCGAGGGGACCGUCCCCUCGGUAAUGGCGAAUGGGACCCA | 1.07
GGCCGGCACGGACCCAGCCUCCUCGCUGGCGCCGGCUGGGCAACAUUCCGAGGGGACCGUCCCCUCGGUAAUGGCGAAUGGGACCCA | 0.511
GGCCGGCACGGUCCCAGCCUCCUCGCUGGCGCCGGCUGGGCAACAUUCCGAGGGGACCGUCCCCUCAGUAAUGGCGAAUGGGACCCA | 1.12
GGCCGGCACGGUCCCAGCCUCCUCGCUGGCGCCGGCUGGGCAACAUUCCAAGGGGACCGUCCCCUCGGUAAUGGCGAAUGGGACCCA | 0.877
GGCCGGCAGGGUCCCAGCCUCCUCGCUGGCGCCGGCUGGGCAACAUUCCGAGGGGACCGUCCCCUCGGUGAUGGCGAAUGGGACCCA | 0.831
GGCCGGCAGGGUCCCAGCCUCCUCGCUGGCGCCGGCUGGGCAACAUUCCGAGGGGGCCGUCCCCUCGGUAAUGGCGAAUGGGACCCA | 0.895

Variant | self-cleavage
GGCCGGCACGGUCCCAGCCUCCUCGCUGGCGCCAGCUGGGCAACAUUCCGAGGGGACCGUCCCCUCGGUAAUGGCGAAUGGGACCCA | 0.208
GGCCGGCACGGUCCCAGCCUCCUCGCUGGCGCCCGCUGGGCAACAUUCCGAGGGGACCGUCCCCUCGGUAAUGGCGAAUGGGACCCA | 0.361
GGCCGGCACGGUCCCAGCCUCCUCGCGGGCGCCGGCUGGGCAACAUUCCGAGGGGACCGUCCCCUCGGUAAUGGCGAAUGGGACCCA | 0.914
GGCCGGCACGGUCCCAGCCUCCUCGCUGGCACCGGCUGGGCAACAUUCCGAGGGGACCGUCCCCUCGGUAAUGGCGAAUGGGACCCA | 0.269
GGCCGGCACGGUCCCAGCCUCCUCGCUGGCUCCGGCUGGGCAACAUUCCGAGGGGACCGUCCCCUCGGUAAUGGCGAAUGGGACCCA | 0.399
GGCCGGCAGGGUCCCAGCCUCCUCGCUGGAGCCGGCUGGGCAACAUUCCGAGGGGACCGUCCCCUCGGUAAUGGCGAAUGGGACCCA | 0.653
GGCCGGCACGGUCCCAGCCUCCUCGCUGGCGCCGGCUGUGCAACAUUCCGAGGGGACCGUCCCCUCGGUAAUGGCGAAUGGGACCCA | 0.665
GGCCGGCAGGGUCCCUGCCUCCUCGCUGGCGCCGGCUGGGCAACAUUCCGAGGGGACCGUCCCCUCGGUAAUGGCGAAUGGGACCCA | 1.14
GGCCGGCAGGGUCCCAGCCUCCUCGCUGGCGCCGGCUGGGCAACAUUCCGAGGGGACCGUCCCCUCGGUAAUGGCGUAUGGGACCCA | 0.604
GGCCGGCACGGUCCCAGCCUCCUCGCUGGCGCCGGCUGGGCAACAUUCCGAGGGGACCGUCCCGUCGGUAAUGGCGAAUGGGACCCA | 0.95
GGCCGGCACGGUCCCAGCCUCCUCGCUGGCGCCGGCUGGGCAACAUUCCGAGGGGACCGUCCCCUCGGUAAUCGCGAAUGGGACCCA | 0.291
GGCCGGCACGGUCCCAGCCUCCUCGCUGGCGCCGGCUGGGCAACAUUCCGAGGGGACCGUCCCCUCGGUAAUAGCGAAUGGGACCCA | 0.675
GGCCGGCACGGUCCCAGCCUCCUCGCUGGCGCCGGCUGGGCAACAUUCCGAGGGGACCGUCCCCUCGGUAAUGGCGAACGGGACCCA | 0.499
GGCCGGCAGGGUCCCAGCCUCCUCGCUGGCGCCGGCUGGGGAACAUUCCGAGGGGACCGUCCCCUCGGUAAUGGCGAAUGGGACCCA | 0.831
GGCCGGCACGGUCCCAGCCUCCUCGCUGGCGCCGGCUGGGCAACAUUCCGAGGGGACCGUCCCCUCGGUAAUGGCGAAUGGGAACCA | 0.65
GGCCGGCACGGUCCCAGCCUCCUCGCUGGCGCCGGCUGGGCAACAUUCCGAGGGGACCGUCCCCUCGGUAAUGGCGAAUGGGAGCCA | 0.489
